Results as given in patent US20250352661A1 (MYTHIC THERAPEUTICS, published 2025).
Residue numbers refer to the chain shown, from its start. Names may count otherwise.

T1: Human LRRC15 Protein, His Tag (Acro Biosystems) (human, UniProt Q8TF66 22-538, limits assumed)
T1 construct: Bought protein with His tag
T1 sequence (looked up): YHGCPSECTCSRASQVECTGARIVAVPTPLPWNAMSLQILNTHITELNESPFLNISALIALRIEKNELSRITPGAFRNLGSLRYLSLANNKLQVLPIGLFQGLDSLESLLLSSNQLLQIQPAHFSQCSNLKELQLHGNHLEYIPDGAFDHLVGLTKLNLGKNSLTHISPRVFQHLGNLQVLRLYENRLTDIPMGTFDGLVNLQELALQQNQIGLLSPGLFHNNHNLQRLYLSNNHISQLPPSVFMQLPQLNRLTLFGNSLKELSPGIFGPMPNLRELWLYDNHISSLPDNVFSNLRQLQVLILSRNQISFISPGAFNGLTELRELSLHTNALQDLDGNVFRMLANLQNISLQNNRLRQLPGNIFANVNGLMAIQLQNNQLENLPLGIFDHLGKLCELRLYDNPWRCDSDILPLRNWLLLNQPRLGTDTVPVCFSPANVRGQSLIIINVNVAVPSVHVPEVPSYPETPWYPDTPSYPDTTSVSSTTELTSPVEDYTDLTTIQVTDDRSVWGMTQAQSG

T2: LRRC15 on the surface of LRRC15+ cells (SAOS-2, U87MG) (UniProt Q8TF66 22-581, limits assumed)
T2 sequence (looked up): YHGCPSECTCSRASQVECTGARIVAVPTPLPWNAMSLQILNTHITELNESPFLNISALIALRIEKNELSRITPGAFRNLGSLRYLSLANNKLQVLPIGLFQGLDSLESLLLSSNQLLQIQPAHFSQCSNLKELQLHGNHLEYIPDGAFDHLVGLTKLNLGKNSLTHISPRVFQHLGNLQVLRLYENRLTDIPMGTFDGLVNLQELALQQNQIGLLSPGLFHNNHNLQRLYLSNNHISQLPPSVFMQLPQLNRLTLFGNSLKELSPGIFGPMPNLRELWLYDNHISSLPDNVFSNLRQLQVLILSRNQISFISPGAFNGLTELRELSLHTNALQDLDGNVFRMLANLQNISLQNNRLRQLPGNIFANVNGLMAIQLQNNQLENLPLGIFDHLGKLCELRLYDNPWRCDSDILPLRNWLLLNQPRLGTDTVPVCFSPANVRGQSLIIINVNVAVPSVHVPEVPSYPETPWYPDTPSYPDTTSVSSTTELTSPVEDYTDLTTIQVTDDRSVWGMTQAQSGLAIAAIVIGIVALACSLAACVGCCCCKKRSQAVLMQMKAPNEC

B1: MYT8418 (antibody, V domains shown)
VH: EVQLVESGGGLVQPGGSLRLSCTASGLDFRRTNYICWVRQAPGKGLEWVGCIYIADVVHYYASWAKGRFTFSRDTSKNTVYLQMNSLRAEDTAVYYCARGADGGFVYGMDLWGQGTLVTVSS
VL: EIVMTQSPSTLSASVGDRVIITCQASQSIHNHLSWYQQKPGKAPKRLIYSASTLPSGVPSRFSGSGSGAEFTLTISSLQPDDFATYYCQNNYWLAGYGHPFGQGTKLTVL
notes: hu15G7 VL G30H, Y32H; human Fc
B2: MYT8413 (antibody, V domains shown)
VH: B1 VH
VL: B1 VL with H32Y
notes: hu15G7 VL G30H; human Fc
B3: MYT8414 (antibody, V domains shown)
VH: B1 VH
VL: B1 VL with H30G
notes: hu15G7 VL Y32H; human Fc
B4: MYT8420 (antibody, V domains shown)
VH: B1 VH
VL: B1 VL with H32Y, W93H
notes: hu15G7 VL G30H, W93H; human Fc
B5: MYT8421 (antibody, V domains shown)
VH: B1 VH
VL: B1 VL with H32Y, G96H
notes: hu15G7 VL G30H, G96H; human Fc
B6: MYT8419 (antibody, V domains shown)
VH: B1 VH
VL: B1 VL with H32Y, Y92H
notes: hu15G7 VL G30H, Y92H; human Fc
B7: MYT8483 (antibody, IgG1, V domains shown)
VH: EVQLVESGGGLVQPGGSLRLSCTASGFSFSGSYWICWVRQAPGKGLEWVGCINGGSLDITYYASWAKGRFTISRDTSKNTVYLQKTSLRAEDTAVYYCASDTSYTAYGNFYFNLWGQGTLVTVSS
VL: EIVMTQSPSPLSASVGDRVIITCQSSQSVLNNNWLAWYQQKPGKAPKLLIYDASSLASGVPSRFSGSGSGAEFTLTISSLQPDDFATYYCQGEFSCGSADCNAFGQGTKLTVL
B8: MYT9507 (antibody, V domains shown)
VH: EVQLVESGGGLVQPGGSLRLSCTASGFSFSSSHWICWVRQAPGKGLEWVGCIYAGSIGSTYYASWAKGRFTISRDTSKNTVYLQMNSLRAEDTAVYYCARAPNDIYNYYFNLWGQGTLVTVSS
VL: EIVMTQSPSTLSASVGDRVIITCDASENIYNYLAWYQQKPGKAPKLLIYYASTLASGVPSRFSGSGSGAEFTLTISSLQPDDFATYYCQSGYVSKSSTFGQGTKLTVL
B9: MYT9523 (antibody, V domains shown)
VH: B8 VH
VL: B8 VL with D24Q, A55D
B10: MYT2737 (antibody, V domains shown)
VH: EVQLVQSGAEVKKPGASVKVSCKASGYKFSSYWIEWVKQAPGQGLEWIGEILPGSDTTNYNEKFKDRATFTSDTSINTAYMELSRLRSDDTAVYYCARDRGNYRAWFGYWGQGTLVTVSS
VL: DIQMTQSPSSLSASVGDRVTITCRASQDISNYLNWYQQKPGGAVKFLIYHTSRLHSGVPSRFSGSGSGTDYTLTISSLQPEDFATYFCQQGEALPWTFGGGTKVEIK
B11: MYT8417 (antibody, V domains shown)
VH: B1 VH
VL: B1 VL with H30G, H32Y, G96H
B12: MYT8406 (antibody, V domains shown)
VH: B1 VH with Y34H, G104H, V106H
VL: B1 VL with H30G, H32Y
notes: hu15G7 VH Y34H, G104H, V106H; human Fc
B13: MYT8410 (antibody, V domains shown)
VH: B1 VH with Y53H, F105H, V106H
VL: B1 VL with H30G, H32Y
notes: hu15G7 VH Y53H, F105H, V106H; human Fc
B14: MYT8403 (antibody, V domains shown)
VH: B1 VH with Y34H, Y53H, F105H
VL: B1 VL with H30G, H32Y
notes: hu15G7 VH Y34H, Y53H, F105H; human Fc
B15: MYT8407 (antibody, V domains shown)
VH: B1 VH with Y34H, F105H, V106H
VL: B1 VL with H30G, H32Y
notes: hu15G7 VH Y34H, F105H, V106H; human Fc
B16: MYT8411 (antibody, V domains shown)
VH: B1 VH with G104H, F105H, V106H
VL: B1 VL with H30G, H32Y
notes: hu15G7 VH G104H, F105H, V106H; human Fc
B17: MYT8405 (antibody, V domains shown)
VH: B1 VH with Y34H, G104H, F105H
VL: B1 VL with H30G, H32Y
notes: hu15G7 VH Y34H, G104H, F105H; human Fc
B18: MYT8409 (antibody, V domains shown)
VH: B1 VH with Y53H, G104H, V106H
VL: B1 VL with H30G, H32Y
notes: hu15G7 VH Y53H, G104H, V106H; human Fc
B19: MYT8408 (antibody, V domains shown)
VH: B1 VH with Y53H, G104H, F105H
VL: B1 VL with H30G, H32Y
notes: hu15G7 VH Y53H, G104H, F105H; human Fc
B20: MYT8402 (antibody, V domains shown)
VH: B1 VH with Y34H, Y53H, G104H
VL: B1 VL with H30G, H32Y
notes: hu15G7 VH Y34H, Y53H, G104H; human Fc

Each binder was assayed against T1, Human LRRC15 Protein, His Tag (Acro …) (assay: BLI; dissociation pH 7.4 black, pH 5.4 grey [D00010 FIG. 1H]).
From the text: For each individual plot, antigen binding proteins were captured on anti-human Fc biosensors and associated with LRRC15 at pH 7.4. Dissociation was at pH 7.4 (black) or pH 5.4 (grey). Major X-axis ticks=100 seconds, with left dashed vertical line=0 seconds. Major Y-axis ticks=0.5 nm and octet plots are shown MYT5712 and MYT6080-MYT6121.
Multiple LRRC15-binding monoclonal antibodies have been described in the literature and can be used as a template for engineering pH-dependent binding. We selected discovery RabMAb clone 15G7 (rabbit VH SEQ ID NO: 378, rabbit VL SEQ ID NO: 451; humanized VH SEQ ID NO: 382, humanized VL SEQ ID NO: 455) as a LRRC15-binding monoclonal antibody for pH-engineering via histidine scanning. […] To generate pH-dependent sequence variants, individual amino acid residues within the heavy chain CDRs were systematically substituted with a histidine (or alanine if H was already present in a given position; e.g., MYT6099), one at a time (rabbit, MYT6080-6121). Desirable mutations were transferred to a humanized framework (humanized, MYT 8387-8411). After allowing for four days of protein expression, cell culture supernatants were collected, quantified by SDS-PAGE analysis, and the pH dependence of the variant was evaluated using biolayer interferometry (BLI) on an Octet RED 96e instrument. Briefly, cell culture supernatants were diluted based on qualitative expression level of the variant determined by visual examination of SDS-PAGE gels, 5 μL of cell culture supernatant was diluted into 195 μL of 1×PBST, pH 7.4 for high expressors, 25 μL of cell culture supernatant was diluted into 175 μL of 1×PBST, pH 7.4 for medium expressors and 100 μL of cell culture supernatant was diluted into 100 μL of 1×PBST, pH 7.4 for low expressors for loading onto the sensor tips.

Binder	binding result
B1	binds
B2	binds
B3	binds
B4	binds
B5	binds
B6	binds

Each binder was assayed against T2, LRRC15 on the surface of LRRC15+ cells … (assay: cell-based or functional assay).

Binder	Internalization in SAOS-2 cells (10 nM, 24 hours), FOB = fold over background (IgG control)	Internalization in SAOS-2 cells (10 nM, 24 hours), FOS = fold over samrotamab [fold over samrotamab]
B7	2.62 fold over background (IgG control)	1
B8	3.16 fold over background (IgG control)	1.33
B9	3.23 fold over background (IgG control)	1.37
B10	2.01 fold over background (IgG control)	0.62
B11	2.68 fold over background (IgG control)	1.04

The binders below were run against T1, Human LRRC15 Protein, His Tag (Acro …) (assay: BLI; dissociation pH 7.4 black, pH 5.4 grey [D00009 FIG. 1G]).

Binder	binding result
B12	no binding (tested: 50 nM LRRC15)
B13	no binding (tested: 50 nM LRRC15)
B14	no binding (tested: 50 nM LRRC15)
B15	no binding (tested: 50 nM LRRC15)
B16	binds
B17	binds
B18	no binding (tested: 50 nM LRRC15)
B19	no binding (tested: 50 nM LRRC15)
B20	no binding (tested: 50 nM LRRC15)

Target: T2, LRRC15 on the surface of LRRC15+ cells …
Experiment: cell-based or functional assay
Remark: another data set of the same source

Binder	Internalization in U87MG cells (10 nM, 24 hours), FOB = fold over background (IgG control)	Internalization in U87MG cells (10 nM, 24 hours), FOS = fold over samrotamab [fold over samrotamab]
B7	2.25 fold over background (IgG control)	1.45
B8	3.58 fold over background (IgG control)	3.01
B9	3.05 fold over background (IgG control)	2.4
B10	2.07 fold over background (IgG control)	1.24
B11	2.76 fold over background (IgG control)	2.06
